Consider two proteins from PMC7506556, “Structure and function of bacteriophage CBA120 ORF211 (TSP2), the determinant of phage specificity towards E. coli O157:H7” (Scientific Reports, 2020).

Series [1] deals with the molecule itself. As to the kind of experiment: crystal structure; sitting drops, vapor diffusion, room temperature, 0.8 M ammonium sulfate, 0.1 M HEPES pH 7.0; 1.9 Å; two homotrimers in the asymmetric unit.
Series [2] concerns the molecule itself. As to the kind of experiment: not stated; purified TSP1 site-directed mutants; how the trimeric state was shown is not told.

B1: bacteriophage CBA120 ORF211 (TSP2), wild type (enzyme, UniProt G3M190 1-921, looked up)
chain: MTRNVEELFGGVITAPHQIPFTYKSNVGGETFLSLPFYPVTGVVTINGGMQVPLDNFEIEGNTLNLGRALSKGDVVYCLFDKILSPEDTAKGIRIYKFQAVGGETEFTPDFTSYGVQSLYIGGEYKTPEIEYSYDSTTGKVSLQTALSAGVWVVAEMSVKQPNISPAFDRSIQEIARSANVKDSEVIVSTDTISLLDGKKVVYDIATQTSYGLPTIPDGSVISSVSAGKLNYNPGDVQVDLLPLEDSFINVINTLGRNDGAKYIGECHSVADLRNTEPTMDGQRIILKQHTAGTLLGGGVFRALIDGTGKTDNNGTVIKTVGGAAWLRVNADRVNPFMFGALGGSNDDTIPVQSCVDSGKATQLTDAHYVSNIQLKYNTSSIYGSGLHYSRLHQLPSATGNCITIKDTCSLIVLDAFGVYGTGAQQGTSFTAGTTGIYVETPSGLSADYPFHTTADPRRDLCISKVHIAGFDEYGLNIDSGNFSVTTDSLLVNHINQVGVRCATTDWTWTNIQVNTCGKQCLVLDGCGNGRIIGGKFIWANWQPYGTVGQFPGITINNSQNMVINGIEVQDCGGNGIEISESYSISMNGLNTNRNGINANNTFYNIVFNKSDAVINGFVGLNYAANSGSGANSSAGNFQFLSNDCSVTINGVVETGYMGINFIGDNNIINPTNSDLSINGLVNYSKTGLQTMNETPTFDGVSTTPVYVSVPSSVGQVNGLRLSQANKDKLLYSRTAGPEGITMAAVIVPTISGAEVFNFMAIGSGFSDTSNSLHLQLVIDASGKQTIALLLGGDGTTQILSGDLPNDLKLQSGVPYHIAIGAKPGYFWWSILNIQTGKRIRRSFRGAYLAVPFNSIFGLTSSLTFFSDSNAGGDACSGVGAKVYVGMFSSENDYVASRYYNLINPVDPTKLISYRILDSSI
notes: 921-residue polypeptide chain; gene codon optimized for E. coli; residues 1-168 have no electron density in the crystal; Calculated monomer mass 99,054 Da with the 6X-His tag; also called tailspike protein 2; wild-type TSP2; source: E. coli Rosetta-gami 2 (pBAD24), purified (Ni-NTA); not shown: 6X-His, C-terminal, kept
One may read the stoichiometry N as a count of units in the complex or per binding partner. With B1, the “stoichiometry N” value in series [1] came to 3.

B2: D313N:E456Q:E483Q TSP1 (enzyme)
chain: MNEMFSQGGKGSTGILTNKQAVARHFGVKQSEVVYFSVGVDLGGYKVIYDKETQRAYSLPVGIASGTTAVSLSTAAVLVHSAGSVDLGSLAVSREEYVTLPGSFDSGSTLNVKNELLTYTDGKYRWDGILPKTVAPGSTPASTGGVGLGAWISVGDASLRTQLANGDGSLIGIHPQGTLNNVLTVRTPEQYNAVGDGIADDTSKLKEMLSDINNVPETLPDAAAVNSYMEQVAVKIDLTKLYRFTETLYIPPGVSIEIPTSNFFTRECKQGLFYDPVDKNTAAISLMVYRKQPDGSYKLNKDVDYYPTGLDINNGDAITCARKIDINNLNLITAPGVKVGVKWIGGAGCTTKGLSIGENTGSDITTARLPRVGLLQSASWGSIHENLRILYKTQGAVFIDSNGGAAVNNAYISRLGNTNGELEQAVYKPAGFTEVGDVAVTQFAGSEVKFNSPIIQQASFDFVHAGRDTDSYGLFMVDKPHIQSSGGKKKHSFYLINTSSNVTLSGVGLSGQDPDLDSMYFLKNCPETARNVVRGQMPISGVKLVRGTGNYPTLVLDCTNMGSQFQFGEVGDIFYIKDVVGVKADTLYIDPVNGNNYNWGTNGTKPIRELTNIAKICQLFRCKSVYLNAGESVITSNTELPMVVFEGPGSLKANSGSSFLIKAGGTLSLIGLSGISTDGGHMFRVSTVEKVNIHTNCSVNAGAAYVVLSEVQGNIEYRQLFYSVNCSKYIGATAGQTIAGIMVKTATRPTGIDAAPVDGNVSLTYKIIES
notes: source: E. coli BL21(DE3), purified similar to wild type TSPs
As for B2, in series [2], the “stoichiometry N” value was determined as 3.
